Measured values taken from PMC4643126, “On the Ancestral UDP-Glucose Pyrophosphorylase Activity of GalF from Escherichia coli” (Frontiers in Microbiology, 2015).
Substitutions are numbered along the chain they refer to. Names and notes keep the numbering of the source.

B1: GalU (UDP-glucose pyrophosphorylase) from Escherichia coli (enzyme, Escherichia coli K-12, UniProt P0AEP3 1-302, looked up)
chain: MAAINTKVKKAVIPVAGLGTRMLPATKAIPKEMLPLVDKPLIQYVVNECIAAGITEIVLVTHSSKNSIENHFDTSFELEAMLEKRVKRQLLDEVQSICPPHVTIMQVRQGLAKGLGHAVLCAHPVVGDEPVAVILPDVILDEYESDLSQDNLAEMIRRFDETGHSQIMVEPVADVTAYGVVDCKGVELAPGESVPMVGVVEKPKADVAPSNLAIVGRYVLSADIWPLLAKTPPGAGDEIQLTDAIDMLIEKETVEAYHMKGKSHDCGNKLGYMQAFVEYGIRHNTLGTEFKAWLEEEMGIKK
notes: GalU, E. coli K-12, gene galU (909 bp) amplified from genomic DNA, codes for 302 amino acids; expressed from pET28c as an untagged protein; also called UDP-Glc PPase; UTP:glucose-1-phosphate uridylyltransferase; source: E. coli BL21 Star (DE3), purified (DEAE-Sepharose)
B2: GalU_(T20M/R21H) (enzyme, Escherichia coli K-12, UniProt P0AEP3 1-302, looked up)
chain: B1 chain with T20M, R21H
notes: GalU, E. coli K-12, 302 amino acids, untagged, with T20M and R21H; Mutagenesis on the plasmid of the wild-type enzyme; also called GalU T20M/R21H double mutant; source: E. coli BL21 Star (DE3), purified (DEAE-Sepharose)
B3: GalU_(K202A) (enzyme, Escherichia coli K-12, UniProt P0AEP3 1-302, looked up)
chain: B1 chain with K202A
notes: GalU, E. coli K-12, 302 amino acids, untagged, with K202A; Mutagenesis on the plasmid of the wild-type enzyme; source: E. coli BL21 Star (DE3), purified (DEAE-Sepharose)

Biological target: the molecule itself
Assay: SEC; gel filtration of the purified protein on Superdex 200 HR 10/30 in 25 mM Tris-HCl pH 8.0, 100 mM NaCl, 0.1 mM EDTA; mass from a calibration plot of standards

Protein	stoichiometry N
B1	4
B2	4
B3	4
